Key:
Experiment in all cases: biochemical
Assay type in all cases: biochemical
[1] = molecular target: T1, 266 human kinases (Homo sapiens, UniProt P42681); details: Txk(h); 100 μM
T1 sequence (P42681 1-527): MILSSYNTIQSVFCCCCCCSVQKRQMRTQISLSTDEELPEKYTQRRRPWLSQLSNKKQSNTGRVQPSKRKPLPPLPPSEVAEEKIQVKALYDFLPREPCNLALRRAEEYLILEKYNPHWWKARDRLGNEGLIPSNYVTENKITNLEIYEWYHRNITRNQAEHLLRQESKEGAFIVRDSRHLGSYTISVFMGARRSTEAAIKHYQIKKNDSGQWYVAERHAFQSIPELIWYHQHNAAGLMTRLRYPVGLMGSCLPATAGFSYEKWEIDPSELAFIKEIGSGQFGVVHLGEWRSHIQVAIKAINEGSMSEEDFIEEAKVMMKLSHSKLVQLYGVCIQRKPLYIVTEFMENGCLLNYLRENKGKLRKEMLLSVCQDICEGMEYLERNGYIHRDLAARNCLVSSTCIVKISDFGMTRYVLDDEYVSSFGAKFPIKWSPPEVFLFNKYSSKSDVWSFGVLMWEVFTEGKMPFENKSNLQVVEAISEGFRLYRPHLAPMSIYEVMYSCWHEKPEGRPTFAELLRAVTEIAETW
Procedure, shortened: (§1)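 Kinase phosphorylates cationic substrate with radiolabelled ATP phosphate; substrate retained on anionic filter membrane; scintillation count; % of 100% activity control.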

[2] = molecular target: 266 human kinases (Homo sapiens, UniProt Q9UPE1); details: MSSK1(h); 100 μM
Procedure, shortened: as §1

[3] = molecular target: T2, 266 human kinases (Homo sapiens, UniProt P41743); details: PKCι(h); 100 μM
T2 sequence (P41743 1-596): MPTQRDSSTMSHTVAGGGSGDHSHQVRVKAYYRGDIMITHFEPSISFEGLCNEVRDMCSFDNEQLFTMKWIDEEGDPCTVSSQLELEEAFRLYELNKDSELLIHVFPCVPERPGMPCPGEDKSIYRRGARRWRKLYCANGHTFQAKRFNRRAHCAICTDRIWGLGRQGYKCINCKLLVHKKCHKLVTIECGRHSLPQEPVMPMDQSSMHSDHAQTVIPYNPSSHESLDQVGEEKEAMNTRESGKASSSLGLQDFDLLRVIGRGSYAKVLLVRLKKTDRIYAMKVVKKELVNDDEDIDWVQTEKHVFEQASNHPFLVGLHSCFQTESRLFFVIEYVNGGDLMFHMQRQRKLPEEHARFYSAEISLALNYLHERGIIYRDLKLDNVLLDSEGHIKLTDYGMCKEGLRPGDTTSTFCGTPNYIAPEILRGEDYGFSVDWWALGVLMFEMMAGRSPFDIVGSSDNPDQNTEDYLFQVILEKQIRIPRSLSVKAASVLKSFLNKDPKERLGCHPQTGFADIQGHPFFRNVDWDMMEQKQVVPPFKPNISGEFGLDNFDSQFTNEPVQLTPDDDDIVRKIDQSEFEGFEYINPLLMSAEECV
Procedure, shortened: as §1

[4] = molecular target: T3, 266 human kinases (Homo sapiens, UniProt Q8TDC3); details: BrSK1(h); 100 μM
T3 sequence (Q8TDC3 1-778): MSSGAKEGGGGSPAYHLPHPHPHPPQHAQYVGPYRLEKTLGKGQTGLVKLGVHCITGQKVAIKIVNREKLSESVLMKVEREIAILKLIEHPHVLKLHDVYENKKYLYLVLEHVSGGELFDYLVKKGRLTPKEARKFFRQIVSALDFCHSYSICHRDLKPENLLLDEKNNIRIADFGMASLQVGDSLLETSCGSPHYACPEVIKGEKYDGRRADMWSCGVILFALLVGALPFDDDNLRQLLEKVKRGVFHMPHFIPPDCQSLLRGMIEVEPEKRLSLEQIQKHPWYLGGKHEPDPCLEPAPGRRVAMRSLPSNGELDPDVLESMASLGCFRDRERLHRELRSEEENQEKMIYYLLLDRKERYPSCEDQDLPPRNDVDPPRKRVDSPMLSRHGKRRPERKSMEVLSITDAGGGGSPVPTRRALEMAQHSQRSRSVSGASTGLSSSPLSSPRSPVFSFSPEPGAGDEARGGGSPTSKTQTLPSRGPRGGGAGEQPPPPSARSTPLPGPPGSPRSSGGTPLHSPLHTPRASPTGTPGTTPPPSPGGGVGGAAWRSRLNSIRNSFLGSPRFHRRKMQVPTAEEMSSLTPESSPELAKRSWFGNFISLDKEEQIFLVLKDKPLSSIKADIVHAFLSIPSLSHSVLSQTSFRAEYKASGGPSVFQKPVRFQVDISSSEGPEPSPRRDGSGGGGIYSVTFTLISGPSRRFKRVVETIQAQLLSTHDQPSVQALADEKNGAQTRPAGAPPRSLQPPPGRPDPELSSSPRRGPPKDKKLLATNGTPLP
Procedure, shortened: as §1

[5] = molecular target: T4, 266 human kinases (Homo sapiens, UniProt O60285); details: ARK5(h); 100 μM
T4 sequence (O60285 1-661): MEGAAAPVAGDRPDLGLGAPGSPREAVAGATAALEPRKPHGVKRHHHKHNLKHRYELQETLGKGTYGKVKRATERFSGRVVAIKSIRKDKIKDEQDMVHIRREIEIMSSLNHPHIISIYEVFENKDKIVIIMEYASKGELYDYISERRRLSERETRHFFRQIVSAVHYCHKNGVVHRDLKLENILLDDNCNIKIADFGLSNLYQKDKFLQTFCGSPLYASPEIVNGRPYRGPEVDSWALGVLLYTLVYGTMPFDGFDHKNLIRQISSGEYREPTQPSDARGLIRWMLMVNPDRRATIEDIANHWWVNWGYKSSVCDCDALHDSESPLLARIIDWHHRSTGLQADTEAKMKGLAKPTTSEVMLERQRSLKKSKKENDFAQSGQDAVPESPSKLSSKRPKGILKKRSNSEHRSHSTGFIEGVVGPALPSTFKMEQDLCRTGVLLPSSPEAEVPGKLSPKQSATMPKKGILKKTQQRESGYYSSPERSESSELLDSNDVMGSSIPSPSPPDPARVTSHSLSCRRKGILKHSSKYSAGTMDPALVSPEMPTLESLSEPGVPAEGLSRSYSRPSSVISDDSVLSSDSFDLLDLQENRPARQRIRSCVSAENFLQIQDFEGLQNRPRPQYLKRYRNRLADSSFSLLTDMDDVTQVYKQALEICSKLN
Procedure, shortened: as §1

[6] = molecular target: 266 human kinases (Homo sapiens, UniProt P00533); details: EGFR(h); 100 μM
Procedure, shortened: as §1

[7] = molecular target: 266 human kinases (Homo sapiens, UniProt O75116); details: ROCK-II(h); 100 μM
Procedure, shortened: as §1

266 human kinases (Homo sapiens, UniProt Q9UPE1), sequence (Q9UPE1 whole entry): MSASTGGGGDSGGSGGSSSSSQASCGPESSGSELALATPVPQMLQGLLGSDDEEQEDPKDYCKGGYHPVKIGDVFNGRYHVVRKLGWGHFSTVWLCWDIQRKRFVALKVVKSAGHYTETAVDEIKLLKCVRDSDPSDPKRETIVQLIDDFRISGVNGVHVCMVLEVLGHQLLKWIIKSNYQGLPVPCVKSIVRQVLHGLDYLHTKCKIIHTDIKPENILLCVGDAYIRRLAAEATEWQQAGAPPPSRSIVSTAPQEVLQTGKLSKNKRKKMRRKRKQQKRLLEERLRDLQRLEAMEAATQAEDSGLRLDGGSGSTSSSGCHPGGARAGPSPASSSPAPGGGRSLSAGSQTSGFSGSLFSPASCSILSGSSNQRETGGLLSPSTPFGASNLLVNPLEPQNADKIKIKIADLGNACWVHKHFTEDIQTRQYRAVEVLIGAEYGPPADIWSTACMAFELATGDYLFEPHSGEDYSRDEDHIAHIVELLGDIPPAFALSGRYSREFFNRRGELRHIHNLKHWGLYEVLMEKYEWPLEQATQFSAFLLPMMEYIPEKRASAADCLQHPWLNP
266 human kinases (Homo sapiens, UniProt O75116), sequence (O75116 whole entry): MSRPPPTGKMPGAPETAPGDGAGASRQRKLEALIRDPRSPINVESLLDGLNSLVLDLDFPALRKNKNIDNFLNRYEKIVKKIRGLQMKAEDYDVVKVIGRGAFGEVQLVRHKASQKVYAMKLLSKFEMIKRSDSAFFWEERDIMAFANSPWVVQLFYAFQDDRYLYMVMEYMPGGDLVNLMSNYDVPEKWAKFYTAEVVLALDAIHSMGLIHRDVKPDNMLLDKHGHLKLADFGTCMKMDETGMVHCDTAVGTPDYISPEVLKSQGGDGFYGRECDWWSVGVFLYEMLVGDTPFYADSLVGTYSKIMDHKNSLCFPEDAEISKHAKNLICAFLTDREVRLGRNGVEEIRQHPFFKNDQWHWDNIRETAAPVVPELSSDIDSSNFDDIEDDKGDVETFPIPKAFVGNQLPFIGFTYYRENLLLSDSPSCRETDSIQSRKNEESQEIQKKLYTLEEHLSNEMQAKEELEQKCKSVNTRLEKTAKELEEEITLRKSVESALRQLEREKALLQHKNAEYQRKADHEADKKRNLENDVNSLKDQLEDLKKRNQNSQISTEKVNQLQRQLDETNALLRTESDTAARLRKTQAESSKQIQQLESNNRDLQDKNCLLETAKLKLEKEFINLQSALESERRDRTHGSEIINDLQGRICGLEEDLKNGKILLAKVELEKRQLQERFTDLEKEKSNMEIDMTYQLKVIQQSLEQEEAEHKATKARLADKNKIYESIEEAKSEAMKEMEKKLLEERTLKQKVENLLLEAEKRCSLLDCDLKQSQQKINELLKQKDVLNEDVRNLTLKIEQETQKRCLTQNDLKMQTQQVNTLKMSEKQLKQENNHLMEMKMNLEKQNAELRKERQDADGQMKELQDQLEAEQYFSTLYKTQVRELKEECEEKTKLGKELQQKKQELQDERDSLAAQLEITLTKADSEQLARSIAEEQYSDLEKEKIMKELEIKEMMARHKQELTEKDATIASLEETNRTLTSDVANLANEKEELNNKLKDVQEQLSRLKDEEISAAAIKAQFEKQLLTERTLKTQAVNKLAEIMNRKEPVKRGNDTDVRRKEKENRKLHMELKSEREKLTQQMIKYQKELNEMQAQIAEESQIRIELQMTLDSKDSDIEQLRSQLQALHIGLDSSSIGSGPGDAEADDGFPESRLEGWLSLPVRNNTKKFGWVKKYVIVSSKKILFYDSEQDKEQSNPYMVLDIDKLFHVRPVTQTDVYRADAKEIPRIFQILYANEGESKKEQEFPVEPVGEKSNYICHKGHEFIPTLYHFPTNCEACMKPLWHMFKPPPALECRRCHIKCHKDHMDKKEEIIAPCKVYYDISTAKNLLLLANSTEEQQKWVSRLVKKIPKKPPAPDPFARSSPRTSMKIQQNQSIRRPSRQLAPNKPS

| Sequence | % activity [1] [%] | % activity [2] [%] | % activity [3] [%] | % activity [4] [%] | % activity [5] [%] | % activity [6] [%] | % activity [7] [%] |
| --- | --- | --- | --- | --- | --- | --- | --- |
| HRRIKAWLKKIKALARQLGVAA (mammal) [MMI-0500] | 10 | 22 | 7 | 72 | 20 | −1 | 2 |
| YARAAARQARAKALNRQLGVA (mammal) [MMI-0200] | 98 | 100 | 97 | 93 | 93 | 83 | 85 |
